# From paper PMC5387315, “Functional and structural studies on the Neisseria gonorrhoeae GmhA, the first enzyme in the glycero‐manno‐heptose biosynthesis pathways, demonstrate a critical role in lipooligosaccharide synthesis and gonococcal viability” (MicrobiologyOpen, 2017)
# B1: recombinant Neisseria gonorrhoeae sedoheptulose-7-phosphate isomerase GmhA, untagged (rGmhAGC) (enzyme, Neisseria gonorrhoeae FA1090, UniProt Q5F5E3 1-197, looked up)
# chain: MTTLQERVAAHFAESIRAKQEAEKILVEPTVQAAELMLQCLMNDGKILACGNGGSAADAQHFAAEMTGRFEKERMELAAVALTTDTSALTAIGNDYGFDHVFSKQVRALGRAGDVLVGISTSGNSANVIEAVKAAHERDMHVIALTGRDGGKIAAMLKDTDVLLNVPHPRTARIQENHILLIHAMCDCIDSVLLEGM
# notes: GmhA (sedoheptulose-7-phosphate isomerase) of N. gonorrhoeae FA1090, encoded by ngo1986; 197 amino acids, predicted mass 21.093 kDa; ngo1986 amplified without its stop codon and cloned into NcoI/HindIII of pRSF-NT; His tag removed by TEV protease; also called NGO1986; 6 × His-tag-free rGmhAGC; source: E. coli BL21(DE3), purified (IMAC, TEV cleavage, Ni-NTA); not shown: His6, N-terminal, cleaved
# Target: the molecule itself
# Test: SEC; HiLoad 16/600 Superdex 75 pg, 20 mmol/L Tris-HCl pH 8.0, 500 mmol/L NaCl, 1 ml/min; size by Gel Filtration Standard (Bio-Rad)
protein,measurement,value
B1,stoichiometry N,4
